According to the nanobody polyreactivity screen of Harvey et al. (2022):

Test: yeast display, Sf9 membrane polyspecificity reagent, FACS + sequencing; frameworks hold sequencing errors
Procedure, shortened: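 A nanobody's polyreactivity label depends on the gate it was sorted from. Yeast display cells were stained with 10% biotinylated, detergent-solubilized Sf9 membrane reagent for 1 hour at 4 °C, enriched on streptavidin microbeads and sorted by FACS. The low and high (top ~1%) gates were set on anti-HA fluorescence for expression and streptavidin fluorescence for reagent binding.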

Sequence	polyreactivity (PSR sort gate)
QVQLVESGGGLVQAGGSLRLSCAASGFIFDYYAMGWYRQAPGKERELVAGISRRGGSTYYADSVKGRFTISRDNAKNTVYLQMNSLKPEDTAVYYCNADAWRKVPHPGTGGRDYWGQGTQVTVSS	high polyreactivity
QVQLVESGGGLVQAGGSLRLSCAASGRIFGLYAMGWYRQAPGKERELVAAITKRGGTTYYADSVKVRFTISRDNAKNTVYLQMKSLKPEDTAVYYCAAKRSVLRTADYDYWGQGTQVTVSS	high polyreactivity
QVQLVESGGGLVQAGGSLRLSCAASGRIFRYYVMGWYRQAPGKERELVAAITSGTSTNYADSVKGRFTISRDNAKNTVYLQMNSLKPEDTAVYYCAFRSPRGGRTRFNSNYWGQGTQVTVSS	high polyreactivity
QVQLVESGGGLVQAGGSLRLSCAASGFTFARYTRVWSRQAPGKERELVAAISKRGTSTYYADSVKGRFTISRDNAQNTVYLQMNSLKAEDTAVYYCAATPGTGYGDYDYWGQGTQVTVSS	high polyreactivity
QVQLVESGGGLVQAGGSLRFTCAASGRTFIGYAMGWYRHAPGKERELVATISVSGGSTYYADSVKGRYTISRDNAKKTVYLHMNSLKPEDTAVYYCAKAYLRYYDGPYDYWGQGTQVTLSS	low polyreactivity
QVQRVESEGGLVQAGGSLRLSCAASGRTFENYAMGWYRQAPGKERELVATINGRSGNTYYADSVKGRFTISRDNAKNTVYLQLNSLKPDDTAVYYCNAYYEGDYTVGYDYWGQGTQVTVSS	high polyreactivity
QVQLVESGGGLVQAGGSLRLSCAASGRIFGNNAMGWYRQAPGKERELVAAIRSRGTRTYYADSVKGRFTISRDNAKNTVYLQMNSLKPEDTAVYYCATTSLTGRYDRYDYWGQGTQVTVSS	high polyreactivity
QVQLVESGGGLVQAGGSLRLSCAASGSTSLSYVMGWYRQAPGKERELVASITSSGGSTYYADSVKGRFTISRDNAKNTVYLQMNSLKPEDTAVYYCNARSYIDPFSPTSYYRYYWGQGTQVTVSS	high polyreactivity
QVQLVESGGGLVQAGGSLRLSCAASGSIFWIYAMGWYRQAPGKERELVATITRRGGSTYYADSVKGRFTISRDNAKNTGYLQMNSLKPEDSAVYYCATEPGYTYLTSYKYDYWGQGTQVTVSS	low polyreactivity
QVQLVESGGGLVQAGGSLRLSCAASGSIFYFYTMGWYRQAPGKEREFVAAINGIGGSTYYADSVKGRFTISRDNAKNTVYLQMNSLKPEDTAVYYCAADAPWFKRNARKYNFWGQGTQVTVSS	low polyreactivity
QVQLGESGGGLFQAGGSLRLSCAASGFTFVYYAMGWYRQAPGKERELVATISGNGGRTYYADSVKGRFTISRDNAKNTVYLQMNSLKPEDTAVYYCAALLYISSVGYDYWGQGTQVTVSS	low polyreactivity
QVQLVESGGGLVQAGGSLSLSCAASGNTFPYYAMGWYRPAPGKERELVAAIRAGGGSTYYADSVKGRFTISRDNAKNTVYLQMNSLKPEDTAVYYCNADSDYNQYYLAVIHSILDYWGHGTQVTVSS	low polyreactivity
QVQLVESGGGLVQAGGSLRLSCADSGRTFKSYAMGWYRQAPGKERELVAAISSSGGRTFYADSVKGRFTISRDNAKNTVYLQMNSLKPEDTAVYYCNARGFYRGYTYYYWGQGTQVTVSS	high polyreactivity
QVQLVESGGGLVQAGGSLRLSCGASGIIFFNNVMGWYRHAPGKERELVAAITFSGSSTYYADSVKGRFTISRDNAKNTVYLQMNSMKPEDTAVYYCAAKYYGVLYTVPGDDYWGQGTLVTVSS	low polyreactivity
QVQLVESGGGLVQAGGSLRLSCPASVLILVYYAMGWYRQAPGKERELVAAINPGGSTKYADSVKGRFTISRDNAKNTVYLQMNSLKQEDTEVYYCNADGEGADSDYDYWGQGTKVTVSS	low polyreactivity
QVQLVESGGGLVQAVGSHRLSCAASGFIFTSYAMGWYRQAPGKERELVAAITRSGGRTYYADSVKGRFTISRDNAKNTVYLQMNSLKPEDTAVYYCAAVTFYQSPARGYWGQGTQVTVSS	high polyreactivity
QVHLVESGGGLVQAGGSLRLSCAASGSIFSLYAMGWYRQAPGKERELVAAITRSGAGTYYADSVKGRFTISRDNAKNTVYLQLNSLKPEDTAVYYCANRTKTPTGYVWGGYDYWGQGTQVTVSS	high polyreactivity
QVQLVESGGGLVQAGGSLRLSCAASGSIFLASAMGWYRQAPGKERELVAAITAGTGSTYYADSVKGRFTISRDNAKNTVYLQMNSLKPEDTAVYYCAKAVSLFRGPFSSFDYWGQGTQVTVSS	low polyreactivity
QVQLVESGGGLVQAGGSLRLSCAASGSILYVNAMGWYRQAPGKERELVASITDGGNTYYADSVKGRFTISRDNAKNTVYLQMNSLKPEDTAVYYCNAVGRIKVDYGLEYWGQGTQVTVSS	low polyreactivity
QVQLVESGGGLVQAGGSLRLSCAASGSTFTPNAMGWYRQAPGKERELVAAIRGLNGRTYYADSVKGRFTISRDNAKNTVYLQMHSLKPEDTAVYYCAAGGYSYYFAWHDYWGQGTQVTVSS	low polyreactivity
QVQLVESGGGLVQAGGSLRLSCAASGSIFYTNAMGWYRQAPGKEMEFVASITYRGSNTYYADSVKGRFTISRDNAKTTVYLQMNSLKPEDTAVYYCGADSFYYRPEYDYWGLGTQVTVSS	low polyreactivity
QVQLVESGGGLVQAGGSLRLSCAASGSTSSPYAMGWYRQAPGKERELVAAITSGGSTNYADSVKGRFTISRDNAKNTVYLEMNSLKPEDTAVYYCATRIYGWSFGSWYKYDYRGQGTQVTVSS	low polyreactivity

Sequence	polyreactivity (PSR sort gate)
QVQLVESVGGLVQAGGSLSLSCAASGSTFKQYAMGWYRQAPGKERELVAAISSRGGSTHYADSVKGRFTISRDNAKYTVYLQMNSLKPEDTAVYYCARDTDPQYSRSSDYDYWGQGTQVTVSS	low polyreactivity
QVQLVESGGGLVQAGGSLRLSCAASGSTFKWNAMGWYRQAPGKERELVAAISKGSVNTYYADSVKGRFTISRDNAKNTVYLQMNSLKPEDTAVYYCAADRRYPALDYWGQGTQVTVSS	high polyreactivity
QVQLVESGGGLVQAGGSLRLSCAASGFTFASNAMGWYRQAPWKERELDAGISRTGTTTYYADSVKGRFTISRDNAKNTVYLQMNSLKPEDTAVYYCAASKQAVKYRSQRYYYWGQGTQVTVSS	high polyreactivity
QVQLVESGGGLVQAGGSLRLSCAASGRTFSVNAMGWYRQAPGKERELVAAITSGASTNYADSVKGRFTISRDNAKNTVYLQMNSLKPEDTAVYYCAADYLYHQTSRGKYYSWGQGTQVTVSS	low polyreactivity
QVQLVESGGGLVQAGGSLRLSCAASGFTFRSYAMGWYRQAPGKERELVAGITWRGGRTYYADSVKGRFTISRDNAKNTVYLQMNSLKPEDTAVYYCAVRNASKNRKYYYWGQGTQVTVSS	high polyreactivity
QVQLVESGGGLVQAGGSLRLSCAASGFTFQFYAMGWYRQAPGKERELVAAITWSGGSTYYADSVKGRFTISRDNAKNSVYLQLKSLKPEDTAVYFCAKDRRTYLSYIYDYWGQGTQVTVSS	high polyreactivity
QVQLVDSGGGLVQAGGSLRLSCAASGRIFRYNTMGWYRQAPGKEREFVAAITQRGVNTYYADSVKGRFTISRDNAKNTVYLQMNRLKPEDTAVYYCNAKRYSYWIYRAYDYWGQGTQVTVSS	low polyreactivity
QVQLVESGGGLVQAGGRLRLSCAASVGIFYYYAMGWYRQAPGKERELVATITYTGGSTYADSVKGRFTISRDNAKNTVYLQMNSLKPEDTAVYYCAADGRSRSYYGYDHWGQGTQVTVSS	low polyreactivity
QVQLVESGGGLVQAGGSLRLSCAASGNIFDLYAMGWYRQAPGKERELVAAITRSSSRTYYADSVKGRFTISRDNAKNTVYLQMNSLKPEDTAVYYCRAKQVNRFDYWGQGTKVTVSS	high polyreactivity
QVQLVESGGGLVQAGGSLRLSCAASGRIFLWYAMGWYRQAPGKERELVAAISWDTGNTYYADSVKGRFTISRDNAKNTVYLQINSLKPEDTAVYYCNADNYEWGNNYGYWGQGTQVTVSS	low polyreactivity
QVQLVESGGGLVQAGGSLRLSCAASGIIFGRYAMGWYRQAPGKERELVAAINGSGGSTYYADSVKGRFTISRDNAKNTVYLQMNSLKPEDTAVYYCAANGFLRNGYWGQGTQVTVSS	high polyreactivity
QVQLVESGGGLVQAGGSLRLSCAASGSIFDVYAMGWYRQAPGKERELVAAIRTRGGSTYYADSVKGRFTISRDNAKNTVYLQMNSLKPEDTAVYYCAAGGETVIPWFDDYYWGQGTQVTVSS	low polyreactivity
QVQLVESGGGLDQAGGSLRLSCAASGSIFYRNAMGWYRKAPGKERELVAAISWSGSRTYYADSVKVRFTISRDNAKNTVYLQMISLKPEDTAVYYCNRQYNQWIHYYYRMDYWGQGNQVTVSS	high polyreactivity
QVQRVESGGGLVQSGGSLRLSCAASGRIFYLYARGWNSQAPGKERELVAAITWSGGSTTYADSVKGRFTISRDNAKNTVYLQMNSLKPEDTAVYYCNADGWSFPSFSPMDYWGQGTQVTVSS	low polyreactivity
QVQLVESVGGLVQAGGSLRLSCAASGSTSRFYDMGSYSQAPGKERELVAAITQSGGSTRYADSVKGRFTISRENAKNTVYLQLNSLKPEDTAVNYCAARVRGYSVTRTKPASIGGGSWGQGTQVTVSS	high polyreactivity
QVQLVESGGGLVQAGGSLRLSCAATGSTFYVNDMGWYRQAPGKERELVAAIDWTGGTTYYADSEKGRFTISRDNAKNTVYLQMNSLKPEDSAVYYCAVDDSTVDYDYWGQGTQVTVSS	low polyreactivity
QVQLVESGGGLVQAGGSLRLSCAASGFTFYWYAMGWYRQAPGKERELVAAITIGGSTYYADSVKGRFTISRDNAKNTVYLQMNSLKPEDTAVYYCNVYGYGTEYDYWGQGTQVTVSS	high polyreactivity
QDQLVESGGGLVQAGGSLRLSCAASGGIFFIYVMGWYRQAPGKERELVAAISGSGGTTYYADSVKGRFTISRDNAKNTVYLQMNSLKPEDTAVFYCNRVSDYTLYYWGQGTQVTVSS	low polyreactivity
QVQLVESGGGLVQAGGSLRLSCAASGSTFWHYVMGWYRQAPGKERELVAAISNGGRTNYADSVKGRFTISRDNAKNTVYLHMKSMKPEVTAVYYCAARRRVSYHLYGYWGQGTQVTVSS	high polyreactivity
QVQLVESGGGLVQAGGSLRLSCAASGIIFYYYAMGWYRQAPGKERELVAAITGTGSRTYYADSVKGRFTISRDNAKNTVYLQMNSLKPEDTAVYYCNARSFATGSKVPARGYWGQGTQVTVSS	high polyreactivity
QVQLVESGGGLVQAGGSLRLSCAASGRIFHYYAMGWYRQAPGKERELVASISTGGNTYYADSVKGRFTISRDNAKNTVYLQMNSLKPEVTAVYYCAAVTVRKFYKGINYWYEYWGEGTQVTVSS	high polyreactivity
